# Results published in the supplement of paper PMC6757056.
# ± gives the standard deviation of the averaged measurements.
# B1: library; a variant is named by its letters at N, in order (parent)
# chain: GCUGUCACCGGUGUAUUACCCUAGUGGUCGACCGGUCUGAUGAGUCUNNNNNNAGACGAAACAGC
# Columns and labels:
# [1] = variants of: B1; experiment: normalized RNA/DNA level with ligand (relative to sTRSVctl = 100) (log10 (% of sTRSVctl)); ligand: hypoxanthine (xanthine aptamer); higher = less ribozyme self-cleavage, higher mRNA level; settings: ligand concentration (+) RNA-Seq: 5 mM, HEK293T, reporter: mCherry (pCS4076), ligand present: yes
# Procedure, shortened: (§1)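 Ribozyme switch library plasmids with mCherry reporters (eGFP in certain ligand experiments) went into HEK293T cells at 4 µg per 6-well well. Where ligand was used, it was applied 1 h before transfection, and total RNA was extracted with EDTA 72 h later for reverse transcription, amplification, barcoding and sequencing. RNA level is the RNA-to-DNA read ratio normalized to a spiked-in non-cleaving sequence or to the leading sequences, then scaled and log-transformed. Scaling was ×100 with log10, the leading set comprised 25 sequences, and the cutoff was ≥100 DNA reads.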
# [2] = variants of: B1; experiment: normalized RNA/DNA level without ligand (relative to sTRSVctl = 100) (log10 (% of sTRSVctl)); ligand: hypoxanthine (xanthine aptamer); higher = less ribozyme self-cleavage, higher mRNA level; settings: HEK293T, reporter: mCherry (pCS4076), ligand present: no
# Procedure, shortened: as §1
Variant,normalized RNA/DNA level with ligand (log10) [1],normalized RNA/DNA level without ligand (log10) [2]
GCUGUCACCGGUGUAUUACCCUAGUGGUCGACCGGUCUGAUGAGUCUAGACUGAGACGAAACAGC,1.89 ± 0.045,1.58 ± 0.036
GCUGUCACCGGUGUAUUACCCUAGUGGUCGACCGGUCUGAUGAGUCUCGACUUAGACGAAACAGC,1.9958 ± 0.0011,1.896 ± 0.012
GCUGUCACCGGUGUAUUACCCUAGUGGUCGACCGGUCUGAUGAGUCUGGACUUAGACGAAACAGC,1.94 ± 0.04,1.89 ± 0.04
GCUGUCACCGGUGUAUUACCCUAGUGGUCGACCGGUCUGAUGAGUCUUGACUUAGACGAAACAGC,1.913 ± 0.0093,1.89 ± 0.03
GCUGUCACCGGUGUAUUACCCUAGUGGUCGACCGGUCUGAUGAGUCUCGAGACAGACGAAACAGC,1.93 ± 0.036,1.72 ± 0.025
GCUGUCACCGGUGUAUUACCCUAGUGGUCGACCGGUCUGAUGAGUCUUGAGACAGACGAAACAGC,1.89 ± 0.024,1.83 ± 0.057
GCUGUCACCGGUGUAUUACCCUAGUGGUCGACCGGUCUGAUGAGUCUAGAGACAGACGAAACAGC,1.88 ± 0.028,1.772 ± 0.017
GCUGUCACCGGUGUAUUACCCUAGUGGUCGACCGGUCUGAUGAGUCUCGAGAUAGACGAAACAGC,1.94 ± 0.036,1.71 ± 0.018
GCUGUCACCGGUGUAUUACCCUAGUGGUCGACCGGUCUGAUGAGUCUGGAGAUAGACGAAACAGC,1.93 ± 0.038,1.72 ± 0.024
GCUGUCACCGGUGUAUUACCCUAGUGGUCGACCGGUCUGAUGAGUCUUGAGCAAGACGAAACAGC,1.97 ± 0.04,1.805 ± 0.0096
GCUGUCACCGGUGUAUUACCCUAGUGGUCGACCGGUCUGAUGAGUCUAGAGCAAGACGAAACAGC,1.94 ± 0.065,1.75 ± 0.027
GCUGUCACCGGUGUAUUACCCUAGUGGUCGACCGGUCUGAUGAGUCUCGAGCCAGACGAAACAGC,1.94 ± 0.11,1.852 ± 0.0083
GCUGUCACCGGUGUAUUACCCUAGUGGUCGACCGGUCUGAUGAGUCUGGAGCCAGACGAAACAGC,1.92 ± 0.062,1.854 ± 0.0083
GCUGUCACCGGUGUAUUACCCUAGUGGUCGACCGGUCUGAUGAGUCUAGAGCCAGACGAAACAGC,1.955 ± 0.018,1.823 ± 0.017
GCUGUCACCGGUGUAUUACCCUAGUGGUCGACCGGUCUGAUGAGUCUCGAGCGAGACGAAACAGC,1.94 ± 0.057,1.8 ± 0.02
GCUGUCACCGGUGUAUUACCCUAGUGGUCGACCGGUCUGAUGAGUCUCGAGCUAGACGAAACAGC,1.968 ± 0.0032,1.86 ± 0.052
GCUGUCACCGGUGUAUUACCCUAGUGGUCGACCGGUCUGAUGAGUCUAGAGCUAGACGAAACAGC,1.93 ± 0.029,1.83 ± 0.046
GCUGUCACCGGUGUAUUACCCUAGUGGUCGACCGGUCUGAUGAGUCUCGAGGAAGACGAAACAGC,1.975 ± 0.0031,1.713 ± 0.011
GCUGUCACCGGUGUAUUACCCUAGUGGUCGACCGGUCUGAUGAGUCUCGAGGCAGACGAAACAGC,1.97 ± 0.024,1.89 ± 0.0058
GCUGUCACCGGUGUAUUACCCUAGUGGUCGACCGGUCUGAUGAGUCUGGAGGCAGACGAAACAGC,1.82 ± 0.08,1.37 ± 0.057
GCUGUCACCGGUGUAUUACCCUAGUGGUCGACCGGUCUGAUGAGUCUUGAGGCAGACGAAACAGC,1.94 ± 0.03,1.9 ± 0.079

Variant,normalized RNA/DNA level with ligand (log10) [1],normalized RNA/DNA level without ligand (log10) [2]
GCUGUCACCGGUGUAUUACCCUAGUGGUCGACCGGUCUGAUGAGUCUAGAGGCAGACGAAACAGC,1.987 ± 0.014,1.86 ± 0.068
GCUGUCACCGGUGUAUUACCCUAGUGGUCGACCGGUCUGAUGAGUCUGGAGGGAGACGAAACAGC,1.883 ± 0.018,1.493 ± 0.0022
GCUGUCACCGGUGUAUUACCCUAGUGGUCGACCGGUCUGAUGAGUCUUGAGGGAGACGAAACAGC,1.87 ± 0.036,1.514 ± 0.0058
GCUGUCACCGGUGUAUUACCCUAGUGGUCGACCGGUCUGAUGAGUCUAGAGGGAGACGAAACAGC,1.837 ± 0.0044,1.44 ± 0.035
GCUGUCACCGGUGUAUUACCCUAGUGGUCGACCGGUCUGAUGAGUCUUGAGGUAGACGAAACAGC,1.94 ± 0.035,1.665 ± 0.015
GCUGUCACCGGUGUAUUACCCUAGUGGUCGACCGGUCUGAUGAGUCUCGAGUAAGACGAAACAGC,1.928 ± 0.013,1.72 ± 0.042
GCUGUCACCGGUGUAUUACCCUAGUGGUCGACCGGUCUGAUGAGUCUGGAGUAAGACGAAACAGC,1.896 ± 0.009,1.77 ± 0.018
GCUGUCACCGGUGUAUUACCCUAGUGGUCGACCGGUCUGAUGAGUCUUGAGUAAGACGAAACAGC,1.902 ± 0.015,1.81 ± 0.091
GCUGUCACCGGUGUAUUACCCUAGUGGUCGACCGGUCUGAUGAGUCUAGAGUCAGACGAAACAGC,1.937 ± 0.017,1.8831 ± 0.0015
GCUGUCACCGGUGUAUUACCCUAGUGGUCGACCGGUCUGAUGAGUCUCGAGUGAGACGAAACAGC,1.92 ± 0.0018,1.76 ± 0.04
GCUGUCACCGGUGUAUUACCCUAGUGGUCGACCGGUCUGAUGAGUCUAGAGUGAGACGAAACAGC,1.82 ± 0.047,1.331 ± 0.0048
GCUGUCACCGGUGUAUUACCCUAGUGGUCGACCGGUCUGAUGAGUCUGGAGUUAGACGAAACAGC,1.97 ± 0.038,1.881 ± 0.0061
GCUGUCACCGGUGUAUUACCCUAGUGGUCGACCGGUCUGAUGAGUCUUGAGUUAGACGAAACAGC,1.92 ± 0.039,1.85 ± 0.042
GCUGUCACCGGUGUAUUACCCUAGUGGUCGACCGGUCUGAUGAGUCUAGAGUUAGACGAAACAGC,1.905 ± 0.0059,1.8267 ± 0.0011
GCUGUCACCGGUGUAUUACCCUAGUGGUCGACCGGUCUGAUGAGUCUUGAUAAAGACGAAACAGC,1.91 ± 0.028,1.8144 ± 0.0015
GCUGUCACCGGUGUAUUACCCUAGUGGUCGACCGGUCUGAUGAGUCUUGAUACAGACGAAACAGC,1.926 ± 0.0041,1.848 ± 0.011
GCUGUCACCGGUGUAUUACCCUAGUGGUCGACCGGUCUGAUGAGUCUUGAUAGAGACGAAACAGC,1.88 ± 0.04,1.7 ± 0.041
GCUGUCACCGGUGUAUUACCCUAGUGGUCGACCGGUCUGAUGAGUCUAGAUAGAGACGAAACAGC,1.82 ± 0.025,1.441 ± 0.0087
GCUGUCACCGGUGUAUUACCCUAGUGGUCGACCGGUCUGAUGAGUCUCGAUAUAGACGAAACAGC,1.911 ± 0.0083,1.74 ± 0.024
GCUGUCACCGGUGUAUUACCCUAGUGGUCGACCGGUCUGAUGAGUCUGGAUAUAGACGAAACAGC,1.9 ± 0.023,1.78 ± 0.028
GCUGUCACCGGUGUAUUACCCUAGUGGUCGACCGGUCUGAUGAGUCUAGAUAUAGACGAAACAGC,1.88 ± 0.032,1.798 ± 0.015
